Where a SMILES comes first, the peptide text is derived from it. Bridges are numbered along the chain shown (N, C = ends). [ ]: non-standard residue; d: D form. R8 = C=CCCCCCC[C@@](C)(N)C(=O)O; R5 = C=CCCC[C@@](C)(N)C(=O)O; S5 = C=CCCC[C@](C)(N)C(=O)O

One data set is described as follows: circular dichroism. The following applies: 10 mM phosphate; pH 7.5; 25 °C; 50 uM.
For another data set, the system named is rHRSV-mCherry. The following applies: read-out: EC50 (half-maximal response inhibitory concentration), inhibition of RSV infection; HEp-2 cells, MOI 0.2, peptides added after 2 h infection, mCherry fluorescence at 48 h postinfection; duplicates.
Data set [1] in a line: Circular dichroism spectroscopy, α-helical content. The conditions noted are these: CD, 10 mM phosphate buffer pH 7.5, 50 μM peptide, 25°C, calculated from ellipticity at 222 nm; average of three measurements. The format is physicochemical. How it is done:
The α-helical stabilization appeared to be higher for the i, i + 7 staples overall.
The circular dichroism spectra were acquired on a Chirascan spectropolarimeter. The samples were prepared in 10 mM phosphate buffer, pH 7.5, at a peptide concentration of 50 μM. Data were recorded at 25°C by step scan from 180 nm to 260 nm in a 0.5-mm-pathlength quartz cell using 0.2-nm-wavelength increments, a 1-nm bandwidth, and a response time of 1 s. Each spectrum was an average of three measurements and was subtracted from the buffer baseline. The data were converted to per residue molar ellipticity units (θ; in degrees · square centimeters · decimoles^−1 · number of residues^−1) and smoothed using Igor Pro software. Percent helicity was calculated as follows: (100 × CD222)/(C × N × {40,000 × [1 − (2.5/N)]}), where CD222 is the molar ellipticity (θ) at 222 nm (in millidegrees), N is the number of amino acids in the peptide, and C is the peptide molar concentration (in moles per liter).

In “circular dichroism”, `CC[C@H](C)[C@H](NC(=O)[C@H](CO)NC(=O)[C@]1(C)CCCC=CCCC[C@@](C)(NC(=O)[C@@H](NC(=O)[C@H](C)NC(=O)[C@H](CCCCN)NC(=O)[C@H](CC(N)=O)NC(=O)[C@H](CC(N)=O)NC(=O)[C@H](C)NC(=O)[C@H](CC(=O)O)NC(=O)[C@H](CCC(=O)O)NC(C)=O)[C@@H](C)O)C(=O)N[C@@H](Cc2ccccc2)C(=O)N[C@@H](CC(C)C)C(=O)N1)C(=O)N[C@@H](CCCCN)C(=O)NCC(=O)N[C@@H](CCCCN)C(=O)N[C@@H](Cc1ccccc1)C(=O)N[C@@H](C)C(=O)N[C@@H](CO)C(N)=O` (Ac-EDANNKAT[R5]FL[S5]SIKGKFAS-NH2; staple 9-12) registered a helicity of 58.9%. In turn, `CC[C@H](C)[C@@H]1NC(=O)[C@H](CO)NC(=O)[C@H](CCC(=O)O)NC(=O)[C@H](CC(C)C)NC(=O)[C@H](Cc2ccccc2)NC(=O)[C@](C)(NC(=O)[C@@H](NC(=O)[C@H](C)NC(=O)[C@H](CCCCN)NC(=O)[C@H](CC(N)=O)NC(=O)[C@H](CC(N)=O)NC(=O)[C@H](C)NC(=O)[C@H](CC(=O)O)NC(=O)[C@H](CCC(=O)O)NC(C)=O)[C@@H](C)O)CCCCCCC=CCCC[C@@](C)(C(=O)N[C@@H](CCCCN)C(=O)N[C@@H](Cc2ccccc2)C(=O)N[C@@H](C)C(=O)N[C@@H](CO)C(N)=O)NC(=O)[C@H](CCCCN)NC1=O` (Ac-EDANNKAT[R8]FLESIK[S5]KFAS-NH2; staple 9-16) yielded a helicity in the data set “circular dichroism” of 96%. Still for that read-out and setting: the result for `CC[C@H](C)[C@H](NC(=O)[C@H](CO)NC(=O)[C@]1(C)CCCC=CCCC[C@](C)(NC(=O)[C@H](C)NC(=O)[C@H](CCCCN)NC(=O)[C@H](CC(N)=O)NC(=O)[C@H](CC(N)=O)NC(=O)[C@H](C)NC(=O)[C@H](CC(=O)O)NC(=O)[C@H](CCC(=O)O)NC(C)=O)C(=O)N[C@@H](CCCCN)C(=O)N[C@@H](Cc2ccccc2)C(=O)N[C@@H](CC(C)C)C(=O)N1)C(=O)N[C@@H](CCCCN)C(=O)NCC(=O)N[C@@H](CCCCN)C(=O)N[C@@H](Cc1ccccc1)C(=O)N[C@@H](C)C(=O)N[C@@H](CO)C(N)=O` (Ac-EDANNKA[S5]KFL[S5]SIKGKFAS-NH2; staple 8-12) reads 31%. Consider `CC[C@H](C)[C@H](NC(=O)[C@]1(C)CCCC=CCCCCCC[C@@](C)(NC(=O)[C@H](CC(N)=O)NC(=O)[C@H](CC(N)=O)NC(=O)[C@H](C)NC(=O)[C@H](CC(=O)O)NC(=O)[C@H](CCC(=O)O)NC(C)=O)C(=O)N[C@@H](C)C(=O)N[C@@H]([C@@H](C)O)C(=O)N[C@@H](CCCCN)C(=O)N[C@@H](Cc2ccccc2)C(=O)N[C@@H](CC(C)C)C(=O)N[C@@H](CCC(=O)O)C(=O)N1)C(=O)N[C@@H](CCCCN)C(=O)NCC(=O)N[C@@H](CCCCN)C(=O)N[C@@H](Cc1ccccc1)C(=O)N[C@@H](C)C(=O)N[C@@H](CO)C(N)=O` (Ac-EDANN[R8]ATKFLE[S5]IKGKFAS-NH2; staple 6-13), for which the helicity in “circular dichroism” was 36.5%. As to `CC[C@H](C)[C@H](NC(=O)[C@H](CO)NC(=O)[C@]1(C)CCCC=CCCCCCC[C@@](C)(NC(=O)[C@H](CC(N)=O)NC(=O)[C@H](C)NC(=O)[C@H](CC(=O)O)NC(=O)[C@H](CCC(=O)O)NC(C)=O)C(=O)N[C@@H](CCCCN)C(=O)N[C@@H](C)C(=O)N[C@@H]([C@@H](C)O)C(=O)N[C@@H](CCCCN)C(=O)N[C@@H](Cc2ccccc2)C(=O)N[C@@H](CC(C)C)C(=O)N1)C(=O)N[C@@H](CCCCN)C(=O)NCC(=O)N[C@@H](CCCCN)C(=O)N[C@@H](Cc1ccccc1)C(=O)N[C@@H](C)C(=O)N[C@@H](CO)C(N)=O` (Ac-EDAN[R8]KATKFL[S5]SIKGKFAS-NH2; staple 5-12), in “circular dichroism”, the helicity is 64.6%. Take `CC[C@H](C)[C@H](NC(=O)[C@H](CO)NC(=O)[C@]1(C)CCCC=CCCC[C@@](C)(NC(=O)[C@@H](NC(=O)[C@H](C)NC(=O)[C@H](CCCCN)NC(=O)[C@H](CC(N)=O)NC(=O)[C@H](CC(N)=O)NC(=O)[C@H](C)NC(=O)[C@H](CC(=O)O)NC(=O)[C@H](CCC(=O)O)NC(=O)CNC(=O)[C@H](Cc2c[nH]cn2)NC(=O)[C@H](Cc2ccccc2)NC(=O)[C@H](CCC(=O)O)NC(C)=O)[C@@H](C)O)C(=O)N[C@@H](Cc2ccccc2)C(=O)N[C@@H](CC(C)C)C(=O)N1)C(=O)N[C@@H](CCCCN)C(=O)N[C@]1(C)CCCC=CCCC[C@@](C)(C(=O)N[C@@H](CO)C(N)=O)NC(=O)[C@H](Cc2ccccc2)NC(=O)[C@H](CCCCN)NC1=O` [1c1f] (Ac-EFHGEDANNKAT[R5]FL[S5]SIK[R5]KF[S5]S-NH2; staple 13-16, 20-23): the EC50 with rHRSV-mCherry was above 100 µM. In data set [1], the “% helicity” value is given as 39.2%. Compound `CC[C@H](C)[C@H](NC(=O)[C@H](CO)NC(=O)[C@H](CCC(=O)O)NC(=O)[C@H](CC(C)C)NC(=O)[C@H](Cc1ccccc1)NC(=O)[C@]1(C)CCCC=CCCC[C@](C)(NC(=O)[C@H](CC(N)=O)NC(=O)[C@H](C)NC(=O)[C@H](CC(=O)O)NC(=O)[C@H](CCC(=O)O)NC(C)=O)C(=O)N[C@@H](CCCCN)C(=O)N[C@@H](C)C(=O)N[C@@H]([C@@H](C)O)C(=O)N1)C(=O)N[C@@H](CCCCN)C(=O)NCC(=O)N[C@@H](CCCCN)C(=O)N[C@@H](Cc1ccccc1)C(=O)N[C@@H](C)C(=O)N[C@@H](CO)C(N)=O` [2a] (Ac-EDAN[S5]KAT[S5]FLESIKGKFAS-NH2; staple 5-9) showed a helicity in “circular dichroism” of 17.9%. Also, the “% helicity” value in data set [1] is on record as 17.9%. Take `CC[C@H](C)[C@H](NC(=O)[C@H](CO)NC(=O)[C@]1(C)CCCC=CCCC[C@](C)(NC(=O)[C@H](C)NC(=O)[C@H](CCCCN)NC(=O)[C@H](CC(N)=O)NC(=O)[C@H](CC(N)=O)NC(=O)[C@H](C)NC(=O)[C@H](CC(=O)O)NC(=O)[C@H](CCC(=O)O)NC(=O)CNC(=O)[C@H](Cc2c[nH]cn2)NC(=O)[C@H](Cc2ccccc2)NC(=O)[C@H](CCC(=O)O)NC(C)=O)C(=O)N[C@@H](CCCCN)C(=O)N[C@@H](Cc2ccccc2)C(=O)N[C@@H](CC(C)C)C(=O)N1)C(=O)N[C@@H](CCCCN)C(=O)N[C@]1(C)CCCC=CCCC[C@@](C)(C(=O)N[C@@H](CO)C(N)=O)NC(=O)[C@H](Cc2ccccc2)NC(=O)[C@H](CCCCN)NC1=O` [2b1f] (Ac-EFHGEDANNKA[S5]KFL[S5]SIK[R5]KF[S5]S-NH2; staple 12-16, 20-23): in the data set with rHRSV-mCherry, the EC50 was determined as 41 ± 0.5 µM. In data set [1], the “% helicity” value is listed as 37.6%.

Turning to `CC[C@H](C)[C@H](NC(=O)[C@]1(C)CCCC=CCCC[C@](C)(NC(=O)[C@@H](NC(=O)[C@H](C)NC(=O)[C@H](CCCCN)NC(=O)[C@H](CC(N)=O)NC(=O)[C@H](CC(N)=O)NC(=O)[C@H](C)NC(=O)[C@H](CC(=O)O)NC(=O)[C@H](CCC(=O)O)NC(C)=O)[C@@H](C)O)C(=O)N[C@@H](Cc2ccccc2)C(=O)N[C@@H](CC(C)C)C(=O)N[C@@H](CCC(=O)O)C(=O)N1)C(=O)N[C@@H](CCCCN)C(=O)NCC(=O)N[C@@H](CCCCN)C(=O)N[C@@H](Cc1ccccc1)C(=O)N[C@@H](C)C(=O)N[C@@H](CO)C(N)=O` [2c] (Ac-EDANNKAT[S5]FLE[S5]IKGKFAS-NH2; staple 9-13), the helicity in “circular dichroism” worked out at 16.8%. Besides, in data set [1], the “% helicity” value is reported as 16.8%. Turning to `CC[C@H](C)[C@@H]1NC(=O)[C@](C)(NC(=O)[C@H](CCC(=O)O)NC(=O)[C@H](CC(C)C)NC(=O)[C@H](Cc2ccccc2)NC(=O)[C@H](CCCCN)NC(=O)[C@@H](NC(=O)[C@H](C)NC(=O)[C@H](CCCCN)NC(=O)[C@H](CC(N)=O)NC(=O)[C@H](CC(N)=O)NC(=O)[C@H](C)NC(=O)[C@H](CC(=O)O)NC(=O)[C@H](CCC(=O)O)NC(C)=O)[C@@H](C)O)CCCCCCC=CCCC[C@@](C)(C(N)=O)NC(=O)[C@H](C)NC(=O)[C@H](Cc2ccccc2)NC(=O)[C@H](CCCCN)NC(=O)CNC(=O)[C@H](CCCCN)NC1=O` [3e] (Ac-EDANNKATKFLE[R8]IKGKFA[S5]-NH2; staple 13-20), the helicity in “circular dichroism” is 19.9%. For the same compound, the “% helicity” value in data set [1] is 19.9%.

The values are drawn from publication PMC7508628, “Targeting the Respiratory Syncytial Virus N^0-P Complex with Constrained α-Helical Peptides in Cells and Mice” (Antimicrobial Agents and Chemotherapy, 2020).
